In patent publication US20220242943A1 (Regeneron, published 2022):
Like-named read-outs stand apart in the source and are kept apart here.

B1: mouse PDGF-BB (ligand, UniProt P31240 82-190, looked up)
chain: SLGSLAAAEPAVIAECKTRTEVFQISRNLIDRTNANFLVWPPCVEVQRCSGCCNNRNVQCRASQVQMRPVQVRKIEIVRKKPIFKKATVTLEDHLACKCETIVTPRPVT
B2: H4H13145P (antibody, human IgG4 S228P, kappa, V domains shown)
VH: QVQLVQSGTEVKKPGASVKVSCKASGYTYGAYAISWVRQAPGQGLEWMGWISAYNGNTNYAQKFQDRVTMTTDTSTNTAYMELRGLKSDDTAVYFCARAWNSFDYWGQGTLVTVSS
VL: not shown
notes: also called REGN13335; anti-PDGF-B antibody 1
B3: H4H13145P (antibody, human IgG4 S228P, kappa, V domains shown)
VH: B2 VH
VL: not shown
notes: also called REGN13335
B4: Sino Biologics cynomolgus PDGF-BB Fc tag (Fc fusion, cynomolgus monkey, not shown: a dimerising Fc or GST)
chain: SLGSLTVAEPAMIAECKTRTEVFEISRRLIDRTNANFLVWPPCVEVQRCSGCCNNRNVQCRPTQVQLRPVQVRKIEIVRKKPIFKKATVTLEDHLACKCETVAAARPVT
B5: cynomolgus monkey (Macaca fascicularis) PDGF-BB (ligand)
chain: B4 chain
B6: H4H13132P (antibody, human IgG4 S228P, kappa, V domains shown)
VH: QVQLVQSGAEVKKPGSSVKVSCKASGGTFSSYAISWVRQAPGQGLEWMGGIIPIFGTANYAQKFQGRVTITTDESTSTAYMELSSLRSEDTAVYYCAREGYGDYYFGMDVWGQGTTVTVSS
VL: not shown
notes: also called REGN15171; anti-PDGF-B antibody 2
B7: H4H13132P (antibody, human IgG4 S228P, kappa, V domains shown)
VH: B6 VH
VL: not shown
notes: also called REGN15171

Key:
[1] = biological target: T1, human PDGFRβ on HEK293/SRE-luc/hPDGFRβ cells (human, UniProt P09619 33-1106); experiment: cell-based or functional assay
[2] = biological target: T1, human PDGFRβ on HEK293/SRE-luc/hPDGFRβ …; experiment: cell-based or functional assay; remark: listed apart in the source
mouse PDGF-BB [3] = biological target: B1; experiment: cell-based or functional assay
[4] = biological target: B5; experiment: cell-based or functional assay
human PDGF-AB [5] = biological target: T2, human PDGF-AB (human, UniProt P04085 87-211); experiment: cell-based or functional assay
human PDGF-AB [6] = biological target: T2, human PDGF-AB; experiment: cell-based or functional assay; remark: listed apart in the source
mouse PDGF-BB [7] = biological target: B1; experiment: SPR, captured mAb, 25 C
Protocol: (§1) The equilibrium dissociation constants (KD values) for human and mouse PDGF-B binding to purified anti-PDGF-B monoclonal antibodies of this disclosure were determined using a real-time surface plasmon resonance (SPR) biosensor instrument, MASS-1. All binding studies were performed in 10 mM HEPES, 300 mM NaCl, 3 mM EDTA, 1 μg/mL Heparin, and 0.05% v/v Surfactant Tween-20, pH 7.4 (HBS-T) running buffer at 25° C. and 37° C. […] The HCA sensor surface was first derivatized by amine coupling the monoclonal mouse anti-human Fc antibody (GE, #BR100839) and anti-PDGF-B monoclonal antibodies were individually captured. […] Kinetic association (kₐ) and dissociation (kd) rate constants were determined by fitting the real-time binding sensorgrams to a 1:1 binding model with mass transport limitation using Scrubber 2.0c software. Binding dissociation equilibrium constant (KD) and dissociative half-life (t½) for different anti-PDGF-B monoclonal antibodies were calculated from the kinetic rate constants as: […]

mouse PDGF-BB [8] = biological target: B1; experiment: SPR, captured mAb, 37 C
Protocol: as §1

mouse PDGF-BB [9] = biological target: B1; experiment: SPR (Bia-core), 37 C as headed
[10] = biological target: B5; experiment: SPR (Bia-core), 37 C as headed
mouse PDGF-BB [11] = biological target: B1; experiment: SPR, 37 C (listed in PK study table)
[12] = biological target: B5; experiment: SPR (Bia-core), 37 C as headed; 37 C as headed
[13] = biological target: B5; experiment: SPR (Biacore T200 or MASS-2), mAb captured by anti-human Fc, 25 C
Protocol: (§2) All binding studies were performed in 10 mM HEPES, 300 mM NaCl, and 0.05% v/v Surfactant Tween-20, pH 7.4 (HBS-P) running buffer at 25° C.
(§3) The association rate (kₐ) and dissociation rate (kd) were determined by fitting the real-time binding sensorgrams to a 1:1 binding model with mass transport limitation using Scrubber 2.0c curve-fitting software. Binding dissociation equilibrium constant (KD) and dissociative half-life (t½) were calculated from the kinetic rates as: […]

rat PDGF-BB = biological target: T3, rat PDGF-BB (rat, UniProt Q05028 74-182); experiment: as above
T3 construct: also called rPDGF-BB
Protocol: as §2, §3

mouse PDGF-BB [14] = biological target: T4, mouse PDGF-BB (mouse, UniProt P31240 82-190, limits assumed); experiment: SPR MASS-1, captured mAb, 37C
T4 construct: also called mPDGF-BB; mPDGF-B
Protocol: as §1

[15] = biological target: B4; experiment: SPR 25C, mAb captured on anti-hFc; analyte Monkey PDGF-BB Fc homodimer-mouse Fc (IgG1) tag (Sino Biological)
Protocol: The sample was injected at 25 uL/minute for 3 minutes and the dissociation was monitored for 10 minutes. The kinetics parameters were evaluated by fitting the real time data using 1:1 binding model with mass transport limitation.

[16] = biological target: mfPDGFRβ-ecto/hPDGFRb-cyto (monkey (mf); human, UniProt P09619 554-1106); experiment: cell-based or functional assay
[17] = biological target: B5; experiment: cell-based or functional assay; remark: listed apart in the source
human PDGF-AB [18] = biological target: T2, human PDGF-AB; experiment: cell-based or functional assay; remark: listed apart in the source
mouse PDGF-BB [19] = biological target: B1; experiment: SPR (Bia-core), 37 C as headed; remark: listed apart in the source
[20] = biological target: B5; experiment: SPR (Bia-core), 37 C as headed; remark: listed apart in the source
[21] = biological target: B5; experiment: SPR (Bia-core), 37 C as headed; 37 C as headed; remark: listed apart in the source
[22] = biological target: Cynomolgus monkey PDGF-BB (cynomolgus monkey (Macaca fascicularis), UniProt A0A2K5UX81 82-190); experiment: cell-based or functional assay
human PDGF-AB [23] = biological target: T5, human PDGF-AB (human, UniProt P04085 87-211); experiment: blocking ELISA: 100 pM Biot-PDGF-AB on 1 ug/ml hPDGFRb-mmH
T5 construct: also called hPDGF-AB; hPDGF AB

T1 sequence (P09619 33-1106): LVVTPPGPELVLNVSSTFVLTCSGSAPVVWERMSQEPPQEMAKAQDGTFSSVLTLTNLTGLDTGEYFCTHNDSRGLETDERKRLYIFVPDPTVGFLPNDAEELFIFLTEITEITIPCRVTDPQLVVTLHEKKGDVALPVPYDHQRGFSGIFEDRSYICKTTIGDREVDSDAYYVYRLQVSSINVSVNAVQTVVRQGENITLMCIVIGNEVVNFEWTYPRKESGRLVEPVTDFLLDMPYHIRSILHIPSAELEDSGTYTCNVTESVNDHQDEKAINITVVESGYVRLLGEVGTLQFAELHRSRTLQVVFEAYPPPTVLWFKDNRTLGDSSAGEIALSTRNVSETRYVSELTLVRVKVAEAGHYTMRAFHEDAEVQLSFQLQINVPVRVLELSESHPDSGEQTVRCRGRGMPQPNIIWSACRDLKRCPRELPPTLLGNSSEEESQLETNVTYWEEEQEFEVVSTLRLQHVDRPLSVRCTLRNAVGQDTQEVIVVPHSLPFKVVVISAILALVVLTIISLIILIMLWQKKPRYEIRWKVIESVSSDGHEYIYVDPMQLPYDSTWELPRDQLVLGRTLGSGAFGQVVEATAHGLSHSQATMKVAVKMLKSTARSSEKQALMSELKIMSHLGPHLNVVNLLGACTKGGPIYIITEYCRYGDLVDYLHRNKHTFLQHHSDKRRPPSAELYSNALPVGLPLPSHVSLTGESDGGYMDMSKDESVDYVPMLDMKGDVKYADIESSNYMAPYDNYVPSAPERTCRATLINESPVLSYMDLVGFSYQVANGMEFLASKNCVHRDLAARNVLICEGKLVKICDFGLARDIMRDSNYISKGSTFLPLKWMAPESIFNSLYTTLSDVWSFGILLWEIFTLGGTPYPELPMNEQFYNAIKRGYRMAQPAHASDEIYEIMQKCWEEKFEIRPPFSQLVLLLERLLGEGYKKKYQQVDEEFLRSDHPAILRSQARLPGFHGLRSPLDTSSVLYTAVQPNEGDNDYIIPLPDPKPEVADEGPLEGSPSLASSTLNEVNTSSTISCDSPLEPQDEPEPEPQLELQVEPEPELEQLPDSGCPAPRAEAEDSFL
Chain of mfPDGFRβ-ecto/hPDGFRb-cyto (P09619 554-1106): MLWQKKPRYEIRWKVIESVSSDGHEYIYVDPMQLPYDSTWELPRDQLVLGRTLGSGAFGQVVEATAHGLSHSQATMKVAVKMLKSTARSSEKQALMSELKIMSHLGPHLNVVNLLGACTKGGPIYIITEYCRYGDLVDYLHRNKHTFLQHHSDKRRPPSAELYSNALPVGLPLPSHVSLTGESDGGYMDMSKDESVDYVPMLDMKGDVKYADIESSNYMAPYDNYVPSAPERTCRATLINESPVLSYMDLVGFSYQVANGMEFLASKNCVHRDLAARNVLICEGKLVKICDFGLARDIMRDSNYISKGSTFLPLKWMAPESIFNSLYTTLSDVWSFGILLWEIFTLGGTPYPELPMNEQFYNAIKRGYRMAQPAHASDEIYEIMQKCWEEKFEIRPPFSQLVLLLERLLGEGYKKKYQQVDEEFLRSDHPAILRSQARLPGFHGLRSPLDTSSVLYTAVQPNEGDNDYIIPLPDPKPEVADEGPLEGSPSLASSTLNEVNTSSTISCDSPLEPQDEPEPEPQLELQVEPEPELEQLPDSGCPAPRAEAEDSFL

Q: Which results are given for B1?
A: EC50 of ligand, SRE-luciferase in HEK293/SRE-luc/hPDGFRβ cells [1]: 930 pM; EC50 of ligand, SRE-luciferase in HEK293/SRE-luc/hPDGFRβ cells [2]: 930 pM

Q: For B2, which “IC50, SRE-luciferase, 600 pM mPDGFBB” value (mouse PDGF-BB [3]) is on record?
A: 4.5e-10 M

Q: What about the “IC50 (head printed IC51), SRE-luciferase, 500 pM mfPDGFBB” value [4] of the same binder?
A: 3.2e-10 M

Q: What about the “A647 Intensity, internalization in PASMC, pre-blocking Ab: NA” value (human PDGF-AB [5]) of the same binder?
A: 2.4e+07

Q: And the “A647 Intensity, internalization in NHLF, pre-blocking Ab: NA” value (human PDGF-AB [6])?
A: 1.9e+07

Q: And the Kd (mouse PDGF-BB [7])?
A: ≤ 2.3 pM

Q: And the Kd (mouse PDGF-BB [8])?
A: 0.954 pM

Q: What about the Kd (mouse PDGF-BB [9]) of the same binder?
A: 0.954 pM

Q: What about the t1/2 [10] of the same binder?
A: 12.8 h

Q: And the Kd (mouse PDGF-BB [11])?
A: 0.954 pM

Q: And the Kd [12]?
A: 16.1 pM

Q: What about the Kd [13] of the same binder?
A: 16.1 pM

Q: And the t½ [13]?
A: 12.8 h

Q: What about the Kd (rat PDGF-BB) of the same binder?
A: 125 pM

Q: What about the t½ (rat PDGF-BB) of the same binder?
A: 0.682 h

Q: B3 was tested. Which Kd (mouse PDGF-BB [14]) did it give?
A: 0.954 pM

Q: What about the Kd [15] of the same binder?
A: 26.8 pM

Q: And the “t½” value [15]?
A: 17.8 h

Q: Which “EC50, luciferase in HEK293/SRE-Luc/mfPDGFRβ-ecto/hPDGFRb-cyto cells” value [16] does the source give for B4 here?
A: 167 pM

Q: B5 was tested. Which “EC50 of ligand, SRE-luciferase in HEK293/SRE-luc/hPDGFRβ cells” value [1] did it give?
A: 64 pM

Q: And the “EC50 of ligand, SRE-luciferase in HEK293/SRE-luc/hPDGFRβ cells” value [2]?
A: 64 pM

Q: How did the “IC50 (head printed IC51), SRE-luciferase, 500 pM mfPDGFBB” value [17] turn out when B6 was run?
A: 8.9e-09 M

Q: And the “(%) Inhibition, calcium flux in HLF cells, 1 nM ligand, Full Time Course” value (human PDGF-AB [18])?
A: 63%

Q: What about the “A647 Intensity, internalization in PASMC, pre-blocking Ab: NA” value (human PDGF-AB [5]) of the same binder?
A: 772000

Q: And the “A647 Intensity, internalization in NHLF, pre-blocking Ab: NA” value (human PDGF-AB [6])?
A: 679000

Q: And the Kd (mouse PDGF-BB [8])?
A: 86.7 pM

Q: What about the Kd (mouse PDGF-BB [19]) of the same binder?
A: 86.7 pM

Q: What about the t1/2 [20] of the same binder?
A: 4.62 h

Q: And the Kd (mouse PDGF-BB [11])?
A: 86.7 pM

Q: What about the Kd [21] of the same binder?
A: 9.67 pM

Q: And the Kd [13]?
A: 9.67 pM

Q: What about the t½ [13] of the same binder?
A: 4.62 h

Q: And the Kd (rat PDGF-BB)?
A: 103 pM

Q: What about the t½ (rat PDGF-BB) of the same binder?
A: 0.683 h

Q: B7 was tested. Which “IC50, luciferase in HEK293/SRE-Luc/mfPDGFRβ-ecto/hPDGFRb-cyto cells” value [22] did it give?
A: 781 pM

Q: What about the Kd (mouse PDGF-BB [14]) of the same binder?
A: 86.7 pM

Q: What about the IC50 (human PDGF-AB [23]) of the same binder?
A: 14000 pM

Q: And the Kd [15]?
A: 25.6 pM

Q: And the “t½” value [15]?
A: 18.4 h
